# Assay results: the supplement of paper PMC7877785
# ± gives the uncertainty stated by the source.
# Assay: self-splicing fitness, log relative to wild type (ln ratio); higher = more splicing; Tetrahymena group I intron in knt gene, E. coli kanamycin selection, DiMSum; sequences stand for … in CUCUCU…GGAGGGAAAAGUUAUCAGGCAUGCACCUGGUAGCUAGUCUUUAAACCAAUAGAUUGCAUCGGUUUAAAAGGCAAGACCGUCAAAUUGCGGGAAAGGGGUCAACAGCCGUUCAGUACCAAGUCUCAGGGGAAACUUUGAGAUGGCCUUGCAAAGGGUAUGGUAAUAAGCUGACGGACAUGGUCCUAACCACGCAGCCAAGUCCUAAGUCAACAGAUCUUCUGUUGAUAUGGAUGCAGUUCACAGACUAAAUGUCGGUCGGGGAAGAUGUAUUCUUCUCAUAAGAUAUAGUCGGACCUCUCCUUAAUGGGAGCUAGCGGAUGAAGUGAUGCAACACUGGAGCCGCUGGGAACUAAUUUGUAUGCGAAAGUAUAUUGAUUAGUUUUGGAGUACUCGUGGUCG
# Procedure, shortened: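 Fitness was computed with DiMSum as the error-weighted combination of replicate fold changes, kanamycin versus none, each normalised to wild type. The library randomised all eight intron nucleotides of the P1ex region, with the intron placed in the knt kanamycin-resistance gene on pET-22b(+) in E. coli BL21(DE3). Six replicate transformations were grown overnight at 37°C or 30°C on LB agar with or without 25 μg/mL kanamycin, plus 100 μg/mL carbenicillin, 50 μM IPTG and 0.2% rhamnose. Pooled colonies were amplicon-sequenced on an Illumina HiSeq 2500.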
Sequence,self-splicing fitness (ln) (30 °C),self-splicing fitness (ln) (37 °C)
AUUUAGCAAUAUUACGAUAA,-1.53 ± 0.2,-0.502 ± 0.39
GAUUAGCAAUAUUACGCGCA,-0.548 ± 0.12,0.433 ± 0.11
AAGCAGCAAUAUUACGAUCG,-2.29 ± 0.14,-0.905 ± 0.12
AUGGAGCAAUAUUACGAUCU,–,-0.713 ± 0.31
UCGUAGCAAUAUUACGGGGC,-2.26 ± 0.2,-2.55 ± 0.27
AUUCAGCAAUAUUACGUGGG,-2.63 ± 0.11,-1.87 ± 0.1
UUCUAGCAAUAUUACGGUAC,-4.34 ± 0.36,-2.76 ± 0.3
GUGGAGCAAUAUUACGGUUU,-3.22 ± 0.14,-1.65 ± 0.15
CAACAGCAAUAUUACGUAAA,-2.42 ± 0.069,-1.91 ± 0.098
UGGCAGCAAUAUUACGCGUU,-1.6 ± 0.077,-0.555 ± 0.081
ACGUAGCAAUAUUACGGGAC,-4.43 ± 0.3,-1.45 ± 0.16
ACAGAGCAAUAUUACGUCGG,-3.64 ± 0.16,-3.58 ± 0.23
ACCUAGCAAUAUUACGACAG,-2 ± 0.089,-1.34 ± 0.12
UAAGAGCAAUAUUACGUUGG,-2.87 ± 0.28,–
GCGUAGCAAUAUUACGCGCA,–,-1.07 ± 0.35
CCGAAGCAAUAUUACGGUAU,-3.13 ± 0.25,-3.64 ± 0.36
UUCUAGCAAUAUUACGCCUU,-3.43 ± 0.21,-2.57 ± 0.15
UAAUAGCAAUAUUACGGUGA,-3.61 ± 0.3,-2.39 ± 0.26
AGCCAGCAAUAUUACGGAAU,-1.76 ± 0.12,-1.52 ± 0.14
ACCUAGCAAUAUUACGGAUA,-1.65 ± 0.11,-1.59 ± 0.099
UGCCAGCAAUAUUACGAACC,-3.55 ± 0.43,-2.29 ± 0.5
UUGAAGCAAUAUUACGGAAG,-1.12 ± 0.14,-0.383 ± 0.2
CCCUAGCAAUAUUACGCUUA,-3.78 ± 0.18,-2.86 ± 0.12
UAUGAGCAAUAUUACGCGUU,-4.08 ± 0.36,-1.79 ± 0.24
GGUAAGCAAUAUUACGGGCA,-0.438 ± 0.082,0.103 ± 0.1
AGGGAGCAAUAUUACGAGUC,-2.9 ± 0.3,–

Sequence,self-splicing fitness (ln) (30 °C),self-splicing fitness (ln) (37 °C)
GAGGAGCAAUAUUACGUAAC,-1.59 ± 0.19,-2.72 ± 0.41
UGUCAGCAAUAUUACGUCUA,0.314 ± 0.096,-0.489 ± 0.1
CUGGAGCAAUAUUACGUGAU,-2.53 ± 0.076,-1.18 ± 0.078
AGUUAGCAAUAUUACGCGCU,-3.13 ± 0.21,-2.4 ± 0.31
AAGUAGCAAUAUUACGUGAC,-2.41 ± 0.19,-1.85 ± 0.4
UGCUAGCAAUAUUACGAGCC,-0.0254 ± 0.11,-0.681 ± 0.2
GUGGAGCAAUAUUACGUCUU,-2.36 ± 0.24,-2.36 ± 0.36
AGGGAGCAAUAUUACGGUUC,–,-1.7 ± 0.42
UAGAAGCAAUAUUACGUCGA,-1.61 ± 0.14,-0.578 ± 0.14
ACAUAGCAAUAUUACGGUCG,-1.62 ± 0.088,-0.223 ± 0.1
GCUCAGCAAUAUUACGAUGC,-1.47 ± 0.12,-0.954 ± 0.15
UCUUAGCAAUAUUACGGGGU,-3.44 ± 0.2,-2.39 ± 0.28
GGCCAGCAAUAUUACGCAAU,-1.17 ± 0.098,-1.2 ± 0.09
CAGUAGCAAUAUUACGUCGA,-3.45 ± 0.25,-1.49 ± 0.17
UGUGAGCAAUAUUACGGCCU,-1.89 ± 0.27,-1.18 ± 0.32
UCUAAGCAAUAUUACGUUAU,-3.25 ± 0.24,-2.31 ± 0.27
ACCAAGCAAUAUUACGCGUG,-2.41 ± 0.083,-1.19 ± 0.07
UGUCAGCAAUAUUACGAGGU,-2.83 ± 0.33,-2.81 ± 0.41
CCCGAGCAAUAUUACGACAU,-3.865 ± 0.026,-2.88 ± 0.041
AGAUAGCAAUAUUACGCGGC,-3.16 ± 0.22,-3.59 ± 0.42
UCGGAGCAAUAUUACGAUUC,-0.553 ± 0.26,-0.938 ± 0.24
UCGAAGCAAUAUUACGAGAG,-3.06 ± 0.43,-1.91 ± 0.25
GAUUAGCAAUAUUACGAAAC,-2.38 ± 0.16,-1.61 ± 0.17
GGGUAGCAAUAUUACGCCAC,–,-1.72 ± 0.48
CAGGAGCAAUAUUACGUGUG,-2.56 ± 0.13,-0.614 ± 0.1
CGUAAGCAAUAUUACGAGGC,-3.73 ± 0.32,-1.99 ± 0.29

Sequence,self-splicing fitness (ln) (30 °C),self-splicing fitness (ln) (37 °C)
CAGCAGCAAUAUUACGCUCA,-0.65 ± 0.085,-0.0891 ± 0.11
AUCGAGCAAUAUUACGGAUG,–,0.184 ± 0.17
AGCUAGCAAUAUUACGAGCC,-3.51 ± 0.32,-2.5 ± 0.49
GAUGAGCAAUAUUACGGAAC,–,0.0424 ± 0.44
AGAAAGCAAUAUUACGCUGA,-3.08 ± 0.21,-0.267 ± 0.15
AGGAAGCAAUAUUACGUCCG,-0.623 ± 0.16,0.408 ± 0.2
CUGUAGCAAUAUUACGAAGC,-4.57 ± 0.42,-2.67 ± 0.38
UGCCAGCAAUAUUACGCACA,-0.53 ± 0.093,-0.708 ± 0.15
GCUGAGCAAUAUUACGGUGU,-2.14 ± 0.077,-1.8 ± 0.091
CGUUAGCAAUAUUACGGGUG,-0.565 ± 0.057,0.0881 ± 0.071
CAGUAGCAAUAUUACGUUGA,–,-2.14 ± 0.16
UCUUAGCAAUAUUACGACGA,0.0588 ± 0.29,-1.68 ± 0.22
AGUUAGCAAUAUUACGUGGG,-4 ± 0.29,-3.07 ± 0.31
GUGAAGCAAUAUUACGCUCG,-1.69 ± 0.11,-0.267 ± 0.13
CAUGAGCAAUAUUACGCGAG,-2.19 ± 0.14,-1.47 ± 0.18
AACCAGCAAUAUUACGUAUU,-1.79 ± 0.072,-0.754 ± 0.08
UUUCAGCAAUAUUACGUAGU,-3.95 ± 0.24,-2.63 ± 0.18
CGCGAGCAAUAUUACGAAGU,-3.36 ± 0.21,-2.57 ± 0.31
UUCGAGCAAUAUUACGUUAC,-3.5 ± 0.48,–
ACUGAGCAAUAUUACGAGGA,-2.63 ± 0.23,-1.83 ± 0.17
CCUGAGCAAUAUUACGUUUC,-3.69 ± 0.25,-2.81 ± 0.28
ACGUAGCAAUAUUACGUAUG,-2.75 ± 0.18,-3.33 ± 0.42
GUUCAGCAAUAUUACGUGAG,-0.139 ± 0.044,-0.408 ± 0.062
GGGCAGCAAUAUUACGCUUG,-0.914 ± 0.088,0.22 ± 0.13
AUAAAGCAAUAUUACGAAGG,-2.1 ± 0.081,-1.41 ± 0.12
AUAUAGCAAUAUUACGUAAA,-2.17 ± 0.21,-1.56 ± 0.29
